The source of these data is publication PMC10216065 (Biomolecules, 2023).

First the molecules themselves.
B1: Mycobacterium tuberculosis SufU (Rv1465), tag state not told (natural protein)
chain: GSHMVTLRLEQIYQDVILDHYKHPQHRGLREPFGAQVYHVNPICGDEVTLRVALSEDGTRVTDVSYDGQGCSISQAATSVLTEQVIGQRVPRALNIVDAFTEMVSSRGTVPGDEDVLGDGVAFAGVAKYPARVKCALLGWMAFKDALAQASEAFEEVTDERNQRTG
B2: Mycobacterium tuberculosis SufS (Rv1464) (enzyme)
chain: GMTASVNSLDLAAIRADFPILKRIMRGGNPLAYLDSGATSQRPLQVLDAEREFLTASNGAVHRGAHQLMEEATDAYEQGRADIALFVGADTDELVFTKNATEALNLVSYVLGDSRFERAVGPGDVIVTTELEHHANLIPWQELARRTGATLRWYGVTDDGRIDLDSLYLDDRVKVVAFTHHSNVTGVLTPVSELVSRAHQSGALTVLDACQSVPHQPVDLHELGVDFAAFSGHKMLGPNGIGVLYGRRELLAQMPPFLTGGSMIETVTMEGATYAPAPQRFEAGTPMTSQVVGLAAAARYLGAIGMAAVEAHERELVAAAIEGLSGIDGVRILGPTSMRDRGSPVAFVVEGVHAHDVGQVLDDGGVAVRVGHHCALPLHRRFGLAATARASFAVYNTADEVDRLVAGVRRSRHFFGRA

For series [1], the target named is B2. In words: crystal structure. The note with it: both partners purified.
The series “SEC-MALS” concerns the molecule itself. The series is described as follows: SEC-MALS. In general terms: In gel filtration, larger molecules generally elute earlier.

On to B1, for which, in series [1], the binding result is recorded as “binds”. The stoichiometry N is a count of units in the complex or per binding partner. With B2, the “stoichiometry N” value in “SEC-MALS” worked out at 2.
